Assay results: US20250236683A1 (published 2025)

B1: PK1-16 (antibody, V domains shown)
VH: AVTLDESGGGLQTPGGGLSLVCKASGFTFRSYAMYWVRQAPGKGLEWLAGISSSGRYTGYAPAVKGRATISRDNGQSTVRLQLSNLRAEDAGTYYCAKDVYDSWTYANRIDAWGHGTEVIVSS
VL: ALTQPSSVSANPGETVKITCSGGGRRGYYGWYQQKSPGSAPVTVIYNNDERPSNIPSRFSGFKSGSTATLTITGVQAEDEAVYYCGSGDTTTDSGIFGAGTTLTVLG
B2: CK1-10 (antibody, V domains shown)
VH: AVTLDESGGGLQTPGRALSLVCKASGFTFSDYGMGWMRQAPGKGLEWVGAISNRGSHTYYGAAVKGRATISRDNGQSTVRLQLNNLRAEDTGTYYCAKDAGTCISSYGFSCVSAASIDAWGHGTEVIVSS
VL: ALTQPSSVSANLGGTVKITCSGGSGSYGGSYYYGWYQQKAPGSAPVTLIYDNTNRPSNIPSRFSGSKSGSTATLTITGVQADDEAVYFCGSIDSISDADIFGAGTTLTVLG
B3: CK1-14 (antibody, V domains shown)
VH: AVTLDESGGGLQTPGGALSLVCKASGFTFTRYAIQWVRQAPGKGLEWVGVINSGGRTLYAPAVKGRATISRDNGQSTVRLQLNNLRAEDTAIYYCVRGGYAYGIETWGHGTEVIVSS
VL: ALTQPSSVSANPGETVKITCSGSRYDYGWYQQKSPGSAPVTLIYYNNKRPSDIPSRFSGSKSGSTHTLTITGVQADDEAVYFCGSTDTSNDIFGAGTTLTVLG

These binders were tested against human PAD2 protein (UniProt Q9Y2J8 1-665) (assay: SPR).
human PAD2 protein, sequence (Q9Y2J8 whole entry): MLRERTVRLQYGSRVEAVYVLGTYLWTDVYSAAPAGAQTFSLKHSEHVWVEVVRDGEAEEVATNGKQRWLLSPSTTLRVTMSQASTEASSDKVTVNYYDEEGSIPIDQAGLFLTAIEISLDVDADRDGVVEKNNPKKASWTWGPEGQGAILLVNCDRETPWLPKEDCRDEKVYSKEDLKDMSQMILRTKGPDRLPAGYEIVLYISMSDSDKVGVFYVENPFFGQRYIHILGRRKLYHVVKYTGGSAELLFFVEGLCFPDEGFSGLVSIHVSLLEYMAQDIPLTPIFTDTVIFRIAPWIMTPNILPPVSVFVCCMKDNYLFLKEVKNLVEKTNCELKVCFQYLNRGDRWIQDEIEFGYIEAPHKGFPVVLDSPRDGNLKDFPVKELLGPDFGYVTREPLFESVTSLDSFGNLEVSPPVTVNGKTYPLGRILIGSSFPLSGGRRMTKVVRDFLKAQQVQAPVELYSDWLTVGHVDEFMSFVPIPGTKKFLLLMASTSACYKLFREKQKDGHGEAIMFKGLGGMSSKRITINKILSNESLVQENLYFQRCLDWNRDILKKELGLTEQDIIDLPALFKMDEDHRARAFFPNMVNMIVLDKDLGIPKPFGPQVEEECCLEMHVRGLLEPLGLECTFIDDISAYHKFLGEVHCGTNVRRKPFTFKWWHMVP
B1 showed a Kd of 1.68 nM.
Work on B2 yielded a Kd of 0.9 nM.
Binder B3 has a Kd of 1.37 nM.
